The values that follow come from patent EP2216341A1, “Transferrin variants and conjugates” (Novozymes Biopharma UK Limited, priority 2009, dated 2010).

The target of this assay is transferrin receptors on human K562 erythroleukemic cells. The assay can be described thus: cell-based or functional assay.

The substance “Fluorescein conjugated thiotransferrin (S28C, S415A, T613A) (ligand)” showed a Specific iron uptake Bmax (fmol 55Fe/10^6 cells x 25min) of 2430, a Specific iron uptake Kd (nM transferrin) of 154 nM and a Total Iron Uptake Bmax (fmol 55Fe/10^6 cells x 25min) of 3290.

With “Fluorescein conjugated thiotransferrin (S415C, T613A) (ligand)”, the Specific iron uptake Bmax (fmol 55Fe/10^6 cells x 25min) was 3250, the Specific iron uptake Kd (nM transferrin) amounted to 189 nM and the Total Iron Uptake Bmax (fmol 55Fe/10^6 cells x 25min) is 4160.

As for “Human plasma-derived apo-transferrin (Calbiochem 616419) (from UniProt P02787 20-698) (ligand)”, the Total Iron Uptake Bmax (fmol 55Fe/10^6 cells x 25min) is 4250.

Consider “recombinant thiotransferrin (S28C, S415A, T613A) (ligand)”, for which the Specific iron uptake Bmax (fmol 55Fe/10^6 cells x 25min) was determined as 3020, the Specific iron uptake Kd (nM transferrin) turned out to be 209 nM and the Total Iron Uptake Bmax (fmol 55Fe/10^6 cells x 25min) was 4210.

Substance “recombinant thiotransferrin (S415C, T613A) (ligand)” came in with a Specific iron uptake Bmax (fmol 55Fe/10^6 cells x 25min) of 2360, a Specific iron uptake Kd (nM transferrin) of 203 nM and a Total Iron Uptake Bmax (fmol 55Fe/10^6 cells x 25min) of 3690.

“recombinant transferrin (S415A, T613A) (ligand)” displayed a Specific iron uptake Bmax (fmol 55Fe/10^6 cells x 25min) of 2830, a Specific iron uptake Kd (nM transferrin) of 130 nM and a Total Iron Uptake Bmax (fmol 55Fe/10^6 cells x 25min) of 4050.
